# Test results: IntAct's records for PubMed 19264781
# B1: Protein Vpx (Human immunodeficiency virus type 2 subtype A (isolate Ghana-1)), P18045 (parent)
# chain: MTDPRERVPPGNSGEETIGEAFEWLDRTIEALNREAVNHLPRELIFQVWQRSWRYWHDDQGMSPSYTKYRYLCLMQKAVFIHFKRGCTCLGGGHGPGGWRSGPPPPPPPGLV
# B2: Protein Vpx (Simian immunodeficiency virus (isolate PBj14/BCL-3)), P19508 (parent)
# chain: MSDPRERIPPGNSGEETIGEAFDWLDRTVEEINRAAVNHLPRELIFQVWRRSWEYWHDEMGMSVSYTKYRYLCLIQKAMFMHCKKGCRCLGGEHGAGGWRPGPPPPPPPGLA
# Variants of: B1
# Conditions: with dcaf1_human DCAF1, Q9Y4B6
row,Variant,effect of a mutation on the interaction
1,MTDPRERVPPGNSGEETIGEAFEWLDRTIEALNREAVNHLPRELIFQVWQRSWRYWHDDQGMSPSYTKYRYLCLMRKAVFIHFKRGCTCLGGGHGPGGWRSGPPPPPPPGLV [Q76R],disrupting interaction

# Variants of: B2
# Conditions: with dcaf1_human DCAF1, Q9Y4B6
# Target sequence in this assay (Q9Y4B6 whole entry): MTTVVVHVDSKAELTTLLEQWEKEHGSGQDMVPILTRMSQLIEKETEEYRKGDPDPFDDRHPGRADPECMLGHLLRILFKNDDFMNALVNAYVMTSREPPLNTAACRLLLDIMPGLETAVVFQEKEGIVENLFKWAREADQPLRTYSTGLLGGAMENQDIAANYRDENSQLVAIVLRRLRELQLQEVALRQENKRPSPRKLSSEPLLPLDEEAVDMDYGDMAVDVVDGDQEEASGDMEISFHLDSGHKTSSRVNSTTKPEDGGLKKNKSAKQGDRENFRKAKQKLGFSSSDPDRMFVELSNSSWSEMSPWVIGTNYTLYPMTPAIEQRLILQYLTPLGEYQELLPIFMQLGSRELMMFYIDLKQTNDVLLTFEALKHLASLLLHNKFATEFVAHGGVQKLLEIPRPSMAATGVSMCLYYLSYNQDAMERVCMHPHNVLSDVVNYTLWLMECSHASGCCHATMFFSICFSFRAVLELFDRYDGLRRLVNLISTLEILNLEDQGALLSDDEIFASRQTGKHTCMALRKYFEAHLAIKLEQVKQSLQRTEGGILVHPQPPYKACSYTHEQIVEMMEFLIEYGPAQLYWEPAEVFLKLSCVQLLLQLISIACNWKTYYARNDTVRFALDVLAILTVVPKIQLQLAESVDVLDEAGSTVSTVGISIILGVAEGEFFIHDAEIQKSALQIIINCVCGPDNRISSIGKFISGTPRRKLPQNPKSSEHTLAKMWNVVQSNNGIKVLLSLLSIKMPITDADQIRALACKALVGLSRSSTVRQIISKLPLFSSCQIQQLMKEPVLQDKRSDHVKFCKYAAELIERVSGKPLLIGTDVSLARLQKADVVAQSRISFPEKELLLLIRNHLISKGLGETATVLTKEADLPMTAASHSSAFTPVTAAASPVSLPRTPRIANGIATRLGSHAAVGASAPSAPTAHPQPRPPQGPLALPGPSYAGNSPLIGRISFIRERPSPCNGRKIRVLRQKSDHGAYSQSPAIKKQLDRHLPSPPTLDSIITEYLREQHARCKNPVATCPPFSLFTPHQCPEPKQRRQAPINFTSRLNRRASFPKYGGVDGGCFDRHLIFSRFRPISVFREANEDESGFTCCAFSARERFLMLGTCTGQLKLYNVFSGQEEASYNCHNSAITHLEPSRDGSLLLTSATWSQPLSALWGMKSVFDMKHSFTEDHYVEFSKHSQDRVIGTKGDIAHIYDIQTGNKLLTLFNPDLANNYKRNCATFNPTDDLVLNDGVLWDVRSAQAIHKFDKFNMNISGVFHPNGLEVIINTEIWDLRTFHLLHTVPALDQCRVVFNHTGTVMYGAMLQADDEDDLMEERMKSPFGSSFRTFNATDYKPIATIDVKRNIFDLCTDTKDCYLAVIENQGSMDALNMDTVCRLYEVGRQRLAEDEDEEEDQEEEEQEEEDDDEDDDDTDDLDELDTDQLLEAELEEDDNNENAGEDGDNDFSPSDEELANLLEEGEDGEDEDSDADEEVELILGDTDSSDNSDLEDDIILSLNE
row,Variant,effect of a mutation on the interaction
1,MSDPRERIPPGNSGEETIGEAFDWLDRTVEEINRAAVNHLPRELIFQVWRRSWEYWHDEMGMSVSYTKYRYLCLIQAAMFMHCKKGCRCLGGEHGAGGWRPGPPPPPPPGLA [K77A],disrupting interaction

# Variants of: B2
# Conditions: with dcaf1_human DCAF1, Q9Y4B6
# Remark: another data set of the same source
# Target sequence in this assay (Q9Y4B6 whole entry): as the sequence (Q9Y4B6 whole entry) above
row,Variant,effect of a mutation on the interaction
1,MSDPRERIPPGNSGEETIGEAFDWLDRTVEEINRAAVNHLPRELIFQVWRRSWEYWHDEMGMSVSYTKYRYLCLIRKAMFMHCKKGCRCLGGEHGAGGWRPGPPPPPPPGLA [Q76R],disrupting interaction
